Data on five substances can be found in patent US7208293.

For assay [1], the target named is trypsin (UniProt P00760). The assay is described as follows: acid elution from trypsin beads.
Assay [2] addresses anhydro-trypsin (UniProt P00760). In words: acid elution from anhydrotrypsin beads, experiment 2.
Assay [3] shares this target. The assay is described as follows: elution from anhydrotrypsin beads.
Assay [4] has the same target. In words: loss of titer on anhydrotrypsin beads.
In assay [5] the target is human neutrophil elastase (human) (UniProt P08246). In words: acid elution from HNE beads.
Chain of human neutrophil elastase (human) (P08246 30-247 limits assumed): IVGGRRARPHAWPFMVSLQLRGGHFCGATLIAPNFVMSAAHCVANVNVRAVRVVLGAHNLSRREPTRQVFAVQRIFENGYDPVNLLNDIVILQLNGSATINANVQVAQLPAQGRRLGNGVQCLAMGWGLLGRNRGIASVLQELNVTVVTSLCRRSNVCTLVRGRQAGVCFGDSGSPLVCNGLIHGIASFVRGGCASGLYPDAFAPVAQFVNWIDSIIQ
In assay [6] the target is trypsin (UniProt P00760). In words: elution from trypsin beads.
Assay [7] deals with anhydro-trypsin (UniProt P00760). In words: acid elution from anhydrotrypsin beads, experiment 1.
Chain of anhydro-trypsin (P00760 24-246): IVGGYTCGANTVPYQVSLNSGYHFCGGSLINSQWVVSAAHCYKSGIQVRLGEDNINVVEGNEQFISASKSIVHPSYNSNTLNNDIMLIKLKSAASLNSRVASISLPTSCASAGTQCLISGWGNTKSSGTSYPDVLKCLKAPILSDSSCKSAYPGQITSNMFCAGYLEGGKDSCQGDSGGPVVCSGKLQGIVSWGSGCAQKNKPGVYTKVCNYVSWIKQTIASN
Assay [8] deals with human neutrophil elastase (human) (UniProt P08246). In words: HNE beads, pH 4.5 elution.
In assay [9] the target is human Cathepsin G (human) (UniProt P08311). The assay is described as follows: Cat-G beads, pH 4.5 elution.
Chain of human Cathepsin G (human) (P08311 21-244 limits assumed): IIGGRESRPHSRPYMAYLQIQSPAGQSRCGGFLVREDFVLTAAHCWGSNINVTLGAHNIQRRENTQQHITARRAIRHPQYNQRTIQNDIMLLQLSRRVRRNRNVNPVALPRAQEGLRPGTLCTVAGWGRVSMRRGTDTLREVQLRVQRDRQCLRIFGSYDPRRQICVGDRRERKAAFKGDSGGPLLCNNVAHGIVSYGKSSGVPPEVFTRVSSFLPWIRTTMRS
In assay [10] the target is human neutrophil elastase (human) (UniProt P08246). The assay is described as follows: HNE beads, pH 3.0 elution.
The target is the same in assay [11]. The assay is described as follows: HNE beads, pH 2.0 elution.
Assay [12] has the same target. The assay is described as follows: HNE beads, pH 2.5 elution.
Assay [13] concerns the target human Cathepsin G (human) (UniProt P08311). The assay is described as follows: Cat-G beads, pH 5.0 elution.
For assay [14], the target named is human neutrophil elastase (human) (UniProt P08246). In words: HNE beads, pH 5.5 elution.
The target of assay [15] is human Cathepsin G (human) (UniProt P08311). In words: Cat-G beads, SUM of all pH elution fractions.
For assay [16], the target named is human neutrophil elastase (human) (UniProt P08246). The assay is described as follows: HNE beads, final TBS-TWEEN wash.
For assay [17] the target is unchanged. In words: HNE beads, pH 7.0 elution.
Assay [18] shares this target. In words: HNE beads, SUM of all pH elution fractions.
For assay [19] the target is unchanged. The assay is described as follows: HNE beads, abbreviated fractionation, pH 3.5.
For assay [20], the target named is human Cathepsin G (human) (UniProt P08311). In words: Cat-G beads, pH 3.0 elution.
The target in assay [21] is human neutrophil elastase (human) (UniProt P08246). The assay is described as follows: HNE beads, abbreviated fractionation, WASH.
The target of assay [22] is human Cathepsin G (human) (UniProt P08311). The assay is described as follows: Cat-G beads, pH 2.0 elution.
Assay [23] deals with human neutrophil elastase (human) (UniProt P08246). In words: HNE beads, pH 5.0 elution.
In assay [24] the target is human Cathepsin G (human) (UniProt P08311). In words: Cat-G beads, final TBS-TWEEN wash.
Assay [25] has the same target. In words: Cat-G beads, pH 3.5 elution.
Assay [26] shares this target. In words: Cat-G beads, pH 5.5 elution.
In assay [27] the target is human neutrophil elastase (human) (UniProt P08246). The assay is described as follows: HNE beads, pH 6.0 elution.
For assay [28] the target is unchanged. In words: HNE beads, abbreviated fractionation, pH 2.0.
Assay [29] concerns the target human Cathepsin G (human) (UniProt P08311). The assay is described as follows: Cat-G beads, pH 4.0 elution.
The target is the same in assay [30]. In words: Cat-G beads, pH 2.5 elution.
Assay [31] addresses human neutrophil elastase (human) (UniProt P08246). The assay is described as follows: HNE beads, abbreviated fractionation, pH 7.0.
Assay [32] deals with human Cathepsin G (human) (UniProt P08311). In words: Cat-G beads, pH 7.0 elution.
The target of assay [33] is human neutrophil elastase (human) (UniProt P08246). The assay is described as follows: HNE beads, pH 3.5 elution.
The target is the same in assay [34]. The assay is described as follows: HNE beads, abbreviated fractionation, SUM of pH fractions.
Assay [35] shares this target. The assay is described as follows: HNE beads, pH 4.0 elution.
For assay [36], the target named is human Cathepsin G (human) (UniProt P08311). In words: Cat-G beads, pH 6.0 elution.
For assay [37], the target named is trypsin (UniProt P00760). In words: immobilized trypsin, CBS buffer pH 6.5, pH 2.2 elution.
Assay [38] deals with trypsin (UniProt P00760). The assay is described as follows: immobilized trypsin, TBS buffer pH 7.5, pH 2.2 elution.
Assay [39] deals with M13 MB48 phage (BPTI:VIII fusion display phage) (bovine BPTI fused to phage M13 gene VIII protein). The assay is described as follows: strain M13MB48 batch 5; NRS IgG added.
The target in assay [40] is M13 mp18 phage. The assay is described as follows: strain M13MP18; NRS IgG and protein A-agarose.
Assay [41] addresses M13 MB48 phage (BPTI:VIII fusion display phage) (bovine BPTI fused to phage M13 gene VIII protein). In words: strain M13MB48 batch 5; NRS IgG and protein A-agarose.
The target is the same in assay [42]. In words: strain M13MB48 batch 4; NRS IgG added.
For assay [43] the target is unchanged. The assay is described as follows: strain M13MB48 batch 4; NRS IgG and protein A-agarose.
Assay [44] concerns the target M13 mp18 phage. The assay is described as follows: strain M13MP18; IgG from normal rabbit serum added.
Assay [45] has as its target M13 MB48 phage (BPTI:VIII fusion display phage) (bovine BPTI fused to phage M13 gene VIII protein). The assay is described as follows: strain M13MB48 batch 5; protein A-agarose alone.

Chain of trypsin (P00760 24-246): as the sequence (P00760 24-246) above

On to M13 mp18 phage, for which the eluted phage, percentage of input came out at 0.0005% in [1]; 0.3% in assay [2]; 0.1% in assay [3]; 0.0003% in assay [5]; 0.00023% in assay [6]; 0.2% in assay [7]. Also, the relative binding (to M13MP18) in [1], in assay [3], in [5] and in assay [6] was 1 throughout. The same substance yielded a relative to M13mp18 in [2] of 1. The pfu post incubation, percentage of input in assay [4] was 121%. In assay [7], the relative to M13MP18 is 1.

Turning to “MA-ITI phage (ITI-D1-III fusion display phage) (from UniProt P02760 22-77)”, the fraction of input in assay [8] is 3.5e-07; in [9] it was 1.5e-06; in assay [10], 8.5e-08; in assay [11], 5e-08; in assay [12] it was 4.1e-08; in [13], 2.4e-06. In addition, the fraction of input in assay [14] amounted to 4.7e-06; in assay [15], 3e-05; in assay [16], 5.3e-06; in [17], 4.7e-06; in [18], 2e-05; in [19], 3e-06. Also, the fraction of input amounted to 7.8e-07 in assay [20]; 1e-05 in [21]; 7e-07 in assay [22]; 9.1e-07 in assay [23]; 1.5e-05 in assay [24]; 9.6e-07 in assay [25]. The fraction of input worked out at 2.6e-06 in [26]; 2.9e-06 in [27]; 1e-06 in assay [28]; 9.6e-07 in assay [29]; 5.9e-07 in assay [30]; 1e-05 in assay [31]. Moreover, the fraction of input came to 1.3e-05 in [32]; 1.4e-07 in assay [33]; 1.4e-05 in [34]; 2.1e-07 in [35]; 5e-06 in [36]. Moreover, the total pfu in sample is 120000 pfu in assay [8]; 670000 pfu in assay [9]; 29000 pfu in assay [10]; 17000 pfu in assay [11]; 14000 pfu in assay [12]; 1.1e+06 pfu in [13]. Further, the total pfu in sample in assay [14] was 1.6e+06 pfu; in assay [15], 1.4e+07 pfu; in [16], 1.8e+06 pfu; in [17], 1.6e+06 pfu; in assay [18], 5.7e+06 pfu; in [20], 360000 pfu. In addition, the total pfu in sample stood at 320000 pfu in [22]; 310000 pfu in [23]; 7.1e+06 pfu in [24]; 440000 pfu in [25]; 1.2e+06 pfu in [26]; 1e+06 pfu in [27]. Besides, the total pfu in sample came out at 440000 pfu in [29]; 270000 pfu in [30]; 6.1e+06 pfu in assay [32]; 49000 pfu in assay [33]; 72000 pfu in assay [35]; 2.3e+06 pfu in assay [36].

As for MK phage, the percent of input phage recovered in [37] is 0.00028%; in assay [38], 0.00034%.

On to “normal rabbit serum / IgG purified from normal rabbit serum (antibody)”, for which the percentage of input phage (pfu) remaining in assay [39] amounted to 105%; in assay [40], 88%; in assay [41], 110%; in assay [42] it was 125%; in assay [43] it was 121%; in assay [44], 104%.

Consider protein A (agarose beads), for which, in [45], the percentage of input phage (pfu) remaining is 58%.
